Laboratory results published in patent US10005838B2, “Milk fat globule epidermal growth factor 8 regulates fatty acid uptake” (REGENTS OF THE UNIVERSITY OF CALIFORNIA, priority 2013, dated 2018).
Entries after “also recorded” stand apart in the source; their conditions may differ.

Tests used:
AKT [1] = test: Western blot, AKT phosphorylation in HepG2 cells; type: cell-based, human
Experimental: (§1) Following tissue preparation and SDS-PAGE, membranes were incubated with a polyclonal antibody against Akt (Cell Signaling Technology), or Rictor (Cell Signaling); Anti-PGC1 alpha antibody (abcam); a monoclonal antibody against Phospho-Akt Ser473 (Cell Signaling), Phospho-Rictor Thr1135 (Cell Signaling), GAPDH (Cell Signaling), or Mfge8 (R&D Systems). For evaluation of total AKT and total Rictor, membranes that been blotted for phospho-AKT and phospho-Rictor were stripped and reprobed. Plasma membrane and post-plasma membrane fractions were isolated as previously described (Nishiumi, S. & Ashida, H., Biosci Biotechnol Biochem 71, 2343-2346 (2007)).

3T3-L1 adipocytes [2] = test: Glucose uptake assay (2-NBDG) in 3T3-L1 adipocytes; type: cell-based, mouse
Experimental: Uptake of […] by primary cells and cell lines was assessed using the fluorescent D-glucose analog 2-[N-(7-nitrobenz-2-oxa-1,3-diazol-4-yl)amino]-2-deoxy-D-glucose (2-NBDG) (Invitrogen). 2-NBDG has been successfully used as an alternative to 2-deoxyglucose in the measurement of glucose uptake in multiple cell types. Cells were plated in triplicate in 96-well plates at a concentration of 25,000 cells per well in 100 μl of DMEM/10% FCS. Plates were centrifuged at 1000 rpm for 4 minutes and incubated at 37° C. for 4-5 hours. Cells were then serum deprived for 1 hour before treatment with recombinant proteins for 20 minutes followed by the addition of 2-NBDG (100 μM) for 10 min at 37° C. in a humidified atmosphere of 5% CO2. Reaction was stopped by adding a twofold volume of ice-cold PBS and the wells were washed again with ice-cold PBS three times. The fluorescent signal before (autofluorescence) and after adding 100 μM 2-NBDG was measured using fluorescent plate reader at 37° C. (Molecular Device using the 485 nmex and 520 nmemiss filter set). The net increase in fluorescence was normalized to the lowest signal (0 cells/well). […]

antral smooth muscle = test: Force of antral smooth muscle ring contraction; design: species or system mouse; details: addition of rMfge8
cardiac myocytes = test: Fatty acid uptake in primary cardiac myocytes; type: cell-based, mouse
PTEN = PTEN activity assay (conversion of PIP3 to PIP2) in freshly isolated antrum; type: biochemical, mouse; details: 10 μg/ml
Experimental: (§2) In FIG. 14A, the antral rings were treated for 15 min with PI3K inhibitor wortmannin (Wort.100 nm) followed by assessment of contractile force in response to MCh. N=3-4. ***P<0.0001. […] Western blot of antral tissue were treated for 30 minutes with or without rMfge8. […] Western blot of antrum were treated for 30 minutes with wortmannin (100 ng/ml) or Mfge8 and then with MCh for 15 minutes prior to quantifying active RhoA using a GST pull-down. […] PTEN activity assay measured the conversion of PIP3 to PIP2 in freshly isolated antrum with and without the rMfge8 or RGE construct (10 μg/ml) n=3-5. *P<0.05, **P<0.01, ***P<0.001.

3T3-L1 adipocytes [3] = test: Fluorescent fatty acid uptake assay in 3T3-L1 adipocytes; type: cell-based, mouse
Experimental: Uptake of fatty acids by differentiated 3T3-L1 adipocytes or primary mouse adipocytes was assessed using a QBT Fatty Acid Uptake Kit (Molecular Devices). Cells were plated in triplicate in 96-well plates at a concentration of 25,000 cells per well in 100 μl of DMEM/10% FCS. Plates were centrifuged at 1000 rpm for 4 minutes and incubated at 37° Celsius for 4-5 hours. Cells were then serum deprived for 1 hour before treatment with recombinant proteins for 30 minutes followed by the addition of QBT Fatty Acid Uptake solution. […] Plates were incubated in a fluorescent plate reader at 37° Celsius and kinetic readings were acquired every 20 seconds for 30 minutes. Fluorescence values were plotted against time and data was expressed as relative fluorescent units per minutes×10^3. […]

HepG2 cells = test: Fatty acid uptake in HepG2 cells; type: cell-based; details: HepG2 human hepatocellular carcinoma cell line
3T3-L1 adipocytes [4] = test: Triglyceride content of 3T3-L1 adipocytes; type: cell-based, mouse; details: 3T3-L1 cells; 2, 4, 6, and 8 days after treatment; 10 μg/ml
Experimental: 3T3-L1 (Zen-Bio) fibroblasts were differentiated into adipocytes as described previously (Liao, J. et al., J Lipid Res 46, 597-602 (2005)). Briefly, 3T3-L1 fibroblasts were cultured to confluence on 10 cm tissue culture plates or in 6-well tissue culture dishes in DMEM supplemented with 10% FBS and 25 mM HEPES (normal medium). 2 days after reaching confluence, media was change and 3-isobutyl-1methylxanthine (Calbiochem), dexamethasone (Sigma), and insulin (Sigma) were added to the normal medium at concentrations of 0.5 mM, 1 μM, and 5 μg/mL, respectively, to induce adipocyte differentiation. After 2 days (and every 2 days thereafter), media was replaced with normal medium supplemented with 5 μg/mL insulin. Cells were harvested for use 6-10 days after differentiation. The human hepatocellular carcinoma cell line HepG2 was a generous gift of Dr. Ethan Weiss. Cells were propagated in Eagle's MEM supplemented with 10% fetal bovine serum.

AKT [5] = test: Western blot of antral tissue, AKT phosphorylation; design: species or system mouse; details: antral tissue treated for 30 minutes
Experimental: as §2

Rictor at threonine 1135 = test: Western blot, Rictor phosphorylation in 3T3-L1 adipocytes; type: cell-based, mouse
Experimental: as §1

B1: rMfge8: recombinant Milk Fat Globule Epidermal Growth Factor 8, an integrin ligand, expressed in High 5 cells (protein)
chain: ASGDFCDSSLCLNGGTCLTGQDNDIYCLCPEGFTGLVCNETERGPCSPNPCYNDAKCLVTLDTQRGDIFTEYICQCPVGYSGIHCETETNYYNLDGEYMFTTAVPNTAVPTPAPTPDLSNNLASRCSTQLGMEGGAIADSQISASSVYMGFMGLQRWGPELARLYRTGIVNAWTASNYDSKPWIQVNLLRKMRVSGVMTQGASRAGRAEYLKTFKVAYSLDGRKFEFIQDESGGDKEFLGNLDNNSLKVNMFNPTLEAQYIKLYPVSCHRGCTLRFELLGCELHGCSEPLGLKNNTIPDSQMSASSSYKTWNLRAFGWYPHLGRLDNQGKINAWTAQSNSAKEWLQVDLGTQRQVTGIITQGARDFGHIQYVASYKVAHSDDGVQWTVYEEQGSSKVFQGNLDNNSHKKNIFEKPFMARYVRVLPVSWHNRITLRLELLGC
phosphorylation of AKT (AKT [1]): induced | effect of insulin on glucose uptake (3T3-L1 adipocytes [2]; insulin 1 μM): significantly inhibited | baseline glucose uptake (3T3-L1 adipocytes [2]; without insulin): no difference; also recorded: no effect | smooth muscle contraction of stomach strips from Mfge8 KO mice (antral smooth muscle): rescued | fatty acid uptake in Mfge8−/− cardiac myocytes (cardiac myocytes): rescued | PTEN activity (PTEN): modulates | fatty acid uptake (BODIPY fatty acid analog) (3T3-L1 adipocytes [3]): significantly increased | fatty acid uptake in HepG2 cells (HepG2 cells): increased | triglyceride content (3T3-L1 adipocytes [4]): significantly greater | AKT phosphorylation in antral tissue (AKT [5]): reduces | phosphorylation of Rictor at threonine 1135 (Rictor at threonine 1135): phosphorylated
